This is an account of results in patent US20150344540A1, “NOVEL GLP-1 RECEPTOR AGONISTS WITH CHOLESTEROL EFFLUX ACTIVITY” (NOVO NORDISK A/S, priority 2012, published 2015).

Where no end group is shown, it is not given here. [ ]: non-standard residue; d: D form. Aib = CC(C)(N)C(=O)O

Sequences and labels used below:
B1: [Aib2,Glu21,Lys29,Aib30,Glu32,Phe33,Leu34,Glu35,Leu36,Leu37]-Exendin-4-(1-37)-peptide amide (peptide)
peptide: H[Aib]EGTFTSDLSKQMEEEAVREFIEWLKNK[Aib]PEFLELL-NH2
modifications: N-terminus assumed
SMILES: CC[C@H](C)[C@H](NC(=O)[C@H](Cc1ccccc1)NC(=O)[C@H](CCC(=O)O)NC(=O)[C@H](CCCNC(=N)N)NC(=O)[C@@H](NC(=O)[C@H](C)NC(=O)[C@H](CCC(=O)O)NC(=O)[C@H](CCC(=O)O)NC(=O)[C@H](CCC(=O)O)NC(=O)[C@H](CCSC)NC(=O)[C@H](CCC(N)=O)NC(=O)[C@H](CCCCN)NC(=O)[C@H](CO)NC(=O)[C@H](CC(C)C)NC(=O)[C@H](CC(=O)O)NC(=O)[C@H](CO)NC(=O)[C@@H](NC(=O)[C@H](Cc1ccccc1)NC(=O)[C@@H](NC(=O)CNC(=O)[C@H](CCC(=O)O)NC(=O)C(C)(C)NC(=O)[C@@H](N)Cc1c[nH]cn1)[C@@H](C)O)[C@@H](C)O)C(C)C)C(=O)N[C@@H](CCC(=O)O)C(=O)N[C@@H](Cc1c[nH]c2ccccc12)C(=O)N[C@@H](CC(C)C)C(=O)N[C@@H](CCCCN)C(=O)N[C@@H](CC(N)=O)C(=O)N[C@@H](CCCCN)C(=O)NC(C)(C)C(=O)N1CCC[C@H]1C(=O)N[C@@H](CCC(=O)O)C(=O)N[C@@H](Cc1ccccc1)C(=O)N[C@@H](CC(C)C)C(=O)N[C@@H](CCC(=O)O)C(=O)N[C@@H](CC(C)C)C(=O)N[C@@H](CC(C)C)C(N)=O
B2: [Aib2,Glu21,Lys29,Aib30,Leu31,Glu32,Phe33,Glu35,Leu36,Leu37]-Exendin-4-(1-37)-peptide amide (peptide)
peptide: H[Aib]EGTFTSDLSKQMEEEAVREFIEWLKNK[Aib]LEFGELL-NH2
modifications: N-terminus assumed
SMILES: CC[C@H](C)[C@H](NC(=O)[C@H](Cc1ccccc1)NC(=O)[C@H](CCC(=O)O)NC(=O)[C@H](CCCNC(=N)N)NC(=O)[C@@H](NC(=O)[C@H](C)NC(=O)[C@H](CCC(=O)O)NC(=O)[C@H](CCC(=O)O)NC(=O)[C@H](CCC(=O)O)NC(=O)[C@H](CCSC)NC(=O)[C@H](CCC(N)=O)NC(=O)[C@H](CCCCN)NC(=O)[C@H](CO)NC(=O)[C@H](CC(C)C)NC(=O)[C@H](CC(=O)O)NC(=O)[C@H](CO)NC(=O)[C@@H](NC(=O)[C@H](Cc1ccccc1)NC(=O)[C@@H](NC(=O)CNC(=O)[C@H](CCC(=O)O)NC(=O)C(C)(C)NC(=O)[C@@H](N)Cc1c[nH]cn1)[C@@H](C)O)[C@@H](C)O)C(C)C)C(=O)N[C@@H](CCC(=O)O)C(=O)N[C@@H](Cc1c[nH]c2ccccc12)C(=O)N[C@@H](CC(C)C)C(=O)N[C@@H](CCCCN)C(=O)N[C@@H](CC(N)=O)C(=O)N[C@@H](CCCCN)C(=O)NC(C)(C)C(=O)N[C@@H](CC(C)C)C(=O)N[C@@H](CCC(=O)O)C(=O)N[C@@H](Cc1ccccc1)C(=O)NCC(=O)N[C@@H](CCC(=O)O)C(=O)N[C@@H](CC(C)C)C(=O)N[C@@H](CC(C)C)C(N)=O
B3: [Aib2,Glu21,Lys29,Aib30,Leu31,Glu32,Phe33,Leu34,Glu35,Leu36]-Exendin-4-(1-37)-peptide amide (peptide)
peptide: H[Aib]EGTFTSDLSKQMEEEAVREFIEWLKNK[Aib]LEFLELP-NH2
modifications: N-terminus assumed
SMILES: CC[C@H](C)[C@H](NC(=O)[C@H](Cc1ccccc1)NC(=O)[C@H](CCC(=O)O)NC(=O)[C@H](CCCNC(=N)N)NC(=O)[C@@H](NC(=O)[C@H](C)NC(=O)[C@H](CCC(=O)O)NC(=O)[C@H](CCC(=O)O)NC(=O)[C@H](CCC(=O)O)NC(=O)[C@H](CCSC)NC(=O)[C@H](CCC(N)=O)NC(=O)[C@H](CCCCN)NC(=O)[C@H](CO)NC(=O)[C@H](CC(C)C)NC(=O)[C@H](CC(=O)O)NC(=O)[C@H](CO)NC(=O)[C@@H](NC(=O)[C@H](Cc1ccccc1)NC(=O)[C@@H](NC(=O)CNC(=O)[C@H](CCC(=O)O)NC(=O)C(C)(C)NC(=O)[C@@H](N)Cc1c[nH]cn1)[C@@H](C)O)[C@@H](C)O)C(C)C)C(=O)N[C@@H](CCC(=O)O)C(=O)N[C@@H](Cc1c[nH]c2ccccc12)C(=O)N[C@@H](CC(C)C)C(=O)N[C@@H](CCCCN)C(=O)N[C@@H](CC(N)=O)C(=O)N[C@@H](CCCCN)C(=O)NC(C)(C)C(=O)N[C@@H](CC(C)C)C(=O)N[C@@H](CCC(=O)O)C(=O)N[C@@H](Cc1ccccc1)C(=O)N[C@@H](CC(C)C)C(=O)N[C@@H](CCC(=O)O)C(=O)N[C@@H](CC(C)C)C(=O)N1CCC[C@H]1C(N)=O
B4: [Aib2,Glu21,Lys29,Aib30,Leu31,Phe33,Leu34,Glu35,Leu36,Leu37]-Exendin-4-(1-37)-peptide amide (peptide)
peptide: H[Aib]EGTFTSDLSKQMEEEAVREFIEWLKNK[Aib]LSFLELL-NH2
modifications: N-terminus assumed
SMILES: CC[C@H](C)[C@H](NC(=O)[C@H](Cc1ccccc1)NC(=O)[C@H](CCC(=O)O)NC(=O)[C@H](CCCNC(=N)N)NC(=O)[C@@H](NC(=O)[C@H](C)NC(=O)[C@H](CCC(=O)O)NC(=O)[C@H](CCC(=O)O)NC(=O)[C@H](CCC(=O)O)NC(=O)[C@H](CCSC)NC(=O)[C@H](CCC(N)=O)NC(=O)[C@H](CCCCN)NC(=O)[C@H](CO)NC(=O)[C@H](CC(C)C)NC(=O)[C@H](CC(=O)O)NC(=O)[C@H](CO)NC(=O)[C@@H](NC(=O)[C@H](Cc1ccccc1)NC(=O)[C@@H](NC(=O)CNC(=O)[C@H](CCC(=O)O)NC(=O)C(C)(C)NC(=O)[C@@H](N)Cc1c[nH]cn1)[C@@H](C)O)[C@@H](C)O)C(C)C)C(=O)N[C@@H](CCC(=O)O)C(=O)N[C@@H](Cc1c[nH]c2ccccc12)C(=O)N[C@@H](CC(C)C)C(=O)N[C@@H](CCCCN)C(=O)N[C@@H](CC(N)=O)C(=O)N[C@@H](CCCCN)C(=O)NC(C)(C)C(=O)N[C@@H](CC(C)C)C(=O)N[C@@H](CO)C(=O)N[C@@H](Cc1ccccc1)C(=O)N[C@@H](CC(C)C)C(=O)N[C@@H](CCC(=O)O)C(=O)N[C@@H](CC(C)C)C(=O)N[C@@H](CC(C)C)C(N)=O
B5: [Aib2,Glu21,Lys29,Aib30,Leu31,Glu32,Phe33,Leu34,Glu35,Leu37]-Exendin-4-(1-37)-peptide amide (peptide)
peptide: H[Aib]EGTFTSDLSKQMEEEAVREFIEWLKNK[Aib]LEFLEPL-NH2
modifications: N-terminus assumed
SMILES: CC[C@H](C)[C@H](NC(=O)[C@H](Cc1ccccc1)NC(=O)[C@H](CCC(=O)O)NC(=O)[C@H](CCCNC(=N)N)NC(=O)[C@@H](NC(=O)[C@H](C)NC(=O)[C@H](CCC(=O)O)NC(=O)[C@H](CCC(=O)O)NC(=O)[C@H](CCC(=O)O)NC(=O)[C@H](CCSC)NC(=O)[C@H](CCC(N)=O)NC(=O)[C@H](CCCCN)NC(=O)[C@H](CO)NC(=O)[C@H](CC(C)C)NC(=O)[C@H](CC(=O)O)NC(=O)[C@H](CO)NC(=O)[C@@H](NC(=O)[C@H](Cc1ccccc1)NC(=O)[C@@H](NC(=O)CNC(=O)[C@H](CCC(=O)O)NC(=O)C(C)(C)NC(=O)[C@@H](N)Cc1c[nH]cn1)[C@@H](C)O)[C@@H](C)O)C(C)C)C(=O)N[C@@H](CCC(=O)O)C(=O)N[C@@H](Cc1c[nH]c2ccccc12)C(=O)N[C@@H](CC(C)C)C(=O)N[C@@H](CCCCN)C(=O)N[C@@H](CC(N)=O)C(=O)N[C@@H](CCCCN)C(=O)NC(C)(C)C(=O)N[C@@H](CC(C)C)C(=O)N[C@@H](CCC(=O)O)C(=O)N[C@@H](Cc1ccccc1)C(=O)N[C@@H](CC(C)C)C(=O)N[C@@H](CCC(=O)O)C(=O)N1CCC[C@H]1C(=O)N[C@@H](CC(C)C)C(N)=O
B6: [Aib2,Glu21,Lys29,Aib30,Leu31,Glu32,Leu34,Glu35,Leu36,Leu37]-Exendin-4-(1-37)-peptide amide (peptide)
peptide: H[Aib]EGTFTSDLSKQMEEEAVREFIEWLKNK[Aib]LESLELL-NH2
modifications: N-terminus assumed
SMILES: CC[C@H](C)[C@H](NC(=O)[C@H](Cc1ccccc1)NC(=O)[C@H](CCC(=O)O)NC(=O)[C@H](CCCNC(=N)N)NC(=O)[C@@H](NC(=O)[C@H](C)NC(=O)[C@H](CCC(=O)O)NC(=O)[C@H](CCC(=O)O)NC(=O)[C@H](CCC(=O)O)NC(=O)[C@H](CCSC)NC(=O)[C@H](CCC(N)=O)NC(=O)[C@H](CCCCN)NC(=O)[C@H](CO)NC(=O)[C@H](CC(C)C)NC(=O)[C@H](CC(=O)O)NC(=O)[C@H](CO)NC(=O)[C@@H](NC(=O)[C@H](Cc1ccccc1)NC(=O)[C@@H](NC(=O)CNC(=O)[C@H](CCC(=O)O)NC(=O)C(C)(C)NC(=O)[C@@H](N)Cc1c[nH]cn1)[C@@H](C)O)[C@@H](C)O)C(C)C)C(=O)N[C@@H](CCC(=O)O)C(=O)N[C@@H](Cc1c[nH]c2ccccc12)C(=O)N[C@@H](CC(C)C)C(=O)N[C@@H](CCCCN)C(=O)N[C@@H](CC(N)=O)C(=O)N[C@@H](CCCCN)C(=O)NC(C)(C)C(=O)N[C@@H](CC(C)C)C(=O)N[C@@H](CCC(=O)O)C(=O)N[C@@H](CO)C(=O)N[C@@H](CC(C)C)C(=O)N[C@@H](CCC(=O)O)C(=O)N[C@@H](CC(C)C)C(=O)N[C@@H](CC(C)C)C(N)=O
B7: [Aib2,Glu21,Aib30,Leu31,Glu32,Phe33,Leu34,Glu35,Leu36,Leu37]-Exendin-4-(1-37)-peptide amide (peptide)
peptide: H[Aib]EGTFTSDLSKQMEEEAVREFIEWLKNG[Aib]LEFLELL-NH2
modifications: N-terminus assumed
SMILES: CC[C@H](C)[C@H](NC(=O)[C@H](Cc1ccccc1)NC(=O)[C@H](CCC(=O)O)NC(=O)[C@H](CCCNC(=N)N)NC(=O)[C@@H](NC(=O)[C@H](C)NC(=O)[C@H](CCC(=O)O)NC(=O)[C@H](CCC(=O)O)NC(=O)[C@H](CCC(=O)O)NC(=O)[C@H](CCSC)NC(=O)[C@H](CCC(N)=O)NC(=O)[C@H](CCCCN)NC(=O)[C@H](CO)NC(=O)[C@H](CC(C)C)NC(=O)[C@H](CC(=O)O)NC(=O)[C@H](CO)NC(=O)[C@@H](NC(=O)[C@H](Cc1ccccc1)NC(=O)[C@@H](NC(=O)CNC(=O)[C@H](CCC(=O)O)NC(=O)C(C)(C)NC(=O)[C@@H](N)Cc1c[nH]cn1)[C@@H](C)O)[C@@H](C)O)C(C)C)C(=O)N[C@@H](CCC(=O)O)C(=O)N[C@@H](Cc1c[nH]c2ccccc12)C(=O)N[C@@H](CC(C)C)C(=O)N[C@@H](CCCCN)C(=O)N[C@@H](CC(N)=O)C(=O)NCC(=O)NC(C)(C)C(=O)N[C@@H](CC(C)C)C(=O)N[C@@H](CCC(=O)O)C(=O)N[C@@H](Cc1ccccc1)C(=O)N[C@@H](CC(C)C)C(=O)N[C@@H](CCC(=O)O)C(=O)N[C@@H](CC(C)C)C(=O)N[C@@H](CC(C)C)C(N)=O

For this assay, the target named is human GLP-1 receptor (human, UniProt P43220). The assay can be described thus: cell-based or functional assay.
On to B1, for which the “CRE luciferase EC50, 0% HSA” value was determined as 0.058 nM and the “CRE luciferase EC50, 1% HSA” value is 0.032 nM.

Turning to B2, the “CRE luciferase EC50, 0% HSA” value was 0.026 nM and the “CRE luciferase EC50, 1% HSA” value was found to be 0.012 nM.

Turning to B3, the “CRE luciferase EC50, 0% HSA” value stood at 0.023 nM and the “CRE luciferase EC50, 1% HSA” value worked out at 0.01 nM.

Regarding B4, the “CRE luciferase EC50, 0% HSA” value came to 0.358 nM and the “CRE luciferase EC50, 1% HSA” value stood at 0.145 nM.

Regarding B5, the “CRE luciferase EC50, 0% HSA” value came to 0.032 nM and the “CRE luciferase EC50, 1% HSA” value was 0.013 nM.

Regarding B6, the “CRE luciferase EC50, 0% HSA” value stood at 0.023 nM and the “CRE luciferase EC50, 1% HSA” value is 0.011 nM.

Regarding B7, the “CRE luciferase EC50, 0% HSA” value is 0.067 nM and the “CRE luciferase EC50, 1% HSA” value turned out to be 0.032 nM.
